For the test, the target named is endogenous human glyceraldehyde 3-phosphate dehydrogenase (GAPDH), 3xFLAG-tagged by CRISPR/Cas9 knock-in (human (endogenous in HEK293T)) (UniProt P04406). The test can be described thus: cryo-EM structure; single-particle cryo-EM of endogenous 3xFLAG-tagged protein purified from HEK293T (anti-FLAG M2, SEC in TBS) on amine-modified graphene oxide grids; GAPDH also from cytosol and nuclei after 8 and 24 h of oxidative stress (1 mM H2O2, 10 mM L-Arg).

endogenous human glyceraldehyde 3-phosphate dehydrogenase (GAPDH), 3xFLAG-tagged by CRISPR/Cas9 knock-in, P04406 1-335 (enzyme; other documents disagree on this pair), sequence (P04406 whole entry): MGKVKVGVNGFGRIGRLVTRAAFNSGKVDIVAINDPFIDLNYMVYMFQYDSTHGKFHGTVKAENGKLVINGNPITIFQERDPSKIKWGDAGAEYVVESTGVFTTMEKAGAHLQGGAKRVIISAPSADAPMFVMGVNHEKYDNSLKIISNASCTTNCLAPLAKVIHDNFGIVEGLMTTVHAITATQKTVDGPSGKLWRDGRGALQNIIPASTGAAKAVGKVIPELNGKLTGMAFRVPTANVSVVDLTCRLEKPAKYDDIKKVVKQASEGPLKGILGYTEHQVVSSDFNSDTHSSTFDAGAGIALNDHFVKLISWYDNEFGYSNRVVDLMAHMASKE

On to “endogenous human glyceraldehyde 3-phosphate dehydrogenase (GAPDH), 3xFLAG-tagged by CRISPR/Cas9 knock-in, P04406 1-335 (enzyme; other documents disagree on this pair)”, for which the stoichiometry N (commonly the number of molecules, sites or subunits per partner or assembly) was found to be 4.

These data come from article PMC10401002.
